Test [1] deals with Cysteine-SpyCatcher.
Test [2] has as its target Cysteine-SpyCatcher. The experiment in a line: pull-down; Cys-SpyCatcher on magnetic beads (50 µl, 20 mg/ml) mixed with 500 µl crude leaf filtrate of plants expressing Mito-SpyTag; 30 min at 4 °C, mitochondria isolation buffer (30 mM MOPS pH 7.5, 0.3 M mannitol, 1 mM EDTA), three washes; mitochondria stained with MitoTracker Orange, read by CLSM and counted; wild type filtrate as control.

The target in test [3] is Cysteine-SpyCatcher. The experiment in a line: pull-down; Cys-SpyCatcher on magnetic beads (50 µl, 20 mg/ml) mixed with 200 µl crude leaf filtrate of plants expressing Plastid-SpyTag; 30 min at 4 °C, chloroplast isolation buffer (10 mM HEPES-KOH pH 7.0, 0.33 M sorbitol), three washes; chloroplasts on beads read by CLSM and counted; wild type filtrate as control.

“Mito-SpyTag (NtHxk1-SpyTag) (from UniProt Q9SEK2 1-44)”: in test [1], the enrichment of mitochondrial fumarase activity in the bead fraction compared to the crude input fraction is 5.4 fold. In test [2], this substance displayed a percent of beads that carry a bound mitochondrion of 31.1%.

Plastid-SpyTag (OEP7-SpyTag) registered a percent of beads that carry a chloroplast in test [3] of 22.8%.

Values taken from publication PMC7465787.
